Reference: FireProtDB (doi:10.1016/j.bpc.2007.01.006)
Several values for one entry are separate records, joined by “and”; a condition that tells them apart may be missing. Equal values may be shown once.

Details: Bos taurus, pH 2, 25 °C, Glycine-HCl 0.05 M, KCl 0.1 M, reversible: Yes, whole UniProt chain shown
[1] = GdnHCl, Fluorescence, transition: 3

B1: Beta-lactoglobulin wild type, P02754 (protein)
chain: MKCLLLALALTCGAQALIVTQTMKGLDIQKVAGTWYSLAMAASDISLLDAQSAPLRVYVEELKPTPEGDLEILLQKWENGECAQKKIIAEKTKIPAVFKIDALNENKVLVLDTDYKKYLLFCMENSAEPEQSLACQCLVRTPEVDDEALEKFDKALKALPMHIRLSFNPTQLEEQCHI
- denaturant m value [1]: 4.97 kcal/mol/M and 4.1 kcal/mol/M
- denaturant midpoint (higher = more stable) [1]: 1.44 M and 3.14 M
- unfolding free energy [1]: 7.15 kcal/mol and 4.88 kcal/mol
- denaturant m value (Urea, Absorbance): 1.62 kcal/mol/M
- denaturant midpoint (higher = more stable) (Urea, Absorbance): 5.3 M
- unfolding free energy (Urea, Absorbance): 8.58 kcal/mol
- denaturant m value (Urea, CD): 1.06 kcal/mol/M and 1.08 kcal/mol/M and 1.1 kcal/mol/M
- denaturant midpoint (higher = more stable) (Urea, CD): 6 M and 6.34 M and 6.55 M
- unfolding free energy (Urea, CD): 6.41 kcal/mol and 6.84 kcal/mol and 7.17 kcal/mol
- denaturant m value (Urea, Fluorescence): 1.56 kcal/mol/M
- denaturant midpoint (higher = more stable) (Urea, Fluorescence): 5.42 M
- unfolding free energy (Urea, Fluorescence): 8.41 kcal/mol
